Experimental data: patent US20150309050A1
No end group written: not given here.

How the values were obtained:
[1] = molecular target: PACAP38 RIA antiserum (Peninsula Laboratories); assay: competition RIA, double antibody immunoprecipitation, antiserum 1:30,000
VT027 antiserum [2] = assay: RIA standard curve, tracer iodinated PACAP(31-38); 125 pg cold standard (so in the source)
VT028 antiserum [3] = assay: RIA standard curve, tracer iodinated PACAP(31-38); 8 pg cold standard
VT028 antiserum [4] = assay: RIA standard curve, tracer iodinated PACAP(31-38); 510 pg cold standard; period in the CPM read as thousands mark
VT028 antiserum [5] = assay: RIA standard curve, tracer iodinated PACAP(31-38); 8 pg cold standard; period in the CPM read as thousands mark
VT028 antiserum [6] = assay: RIA standard curve, tracer iodinated PACAP(31-38); 32 pg cold standard; period in the CPM read as thousands mark
VT027 antiserum [7] = assay: RIA standard curve, tracer iodinated PACAP(31-38); 1,020 pg cold standard
VT026 antiserum [8] = assay: as above
VT028 antiserum [9] = assay: RIA standard curve, tracer iodinated PACAP(31-38); 255 pg cold standard; period in the CPM read as thousands mark
VT028 antiserum [10] = assay: RIA standard curve, tracer iodinated PACAP(31-38); 54 pg cold standard (so in the source)
VT028 antiserum [11] = assay: RIA standard curve, tracer iodinated PACAP(31-38); 1.020 pg cold standard as printed (read as 1,020)
VT026 antiserum [12] = assay: RIA standard curve, tracer iodinated PACAP(31-38); 5 pg cold standard (so in the source)
VT028 antiserum [13] = assay: RIA standard curve, tracer iodinated PACAP(31-38); 4 pg cold standard; period in the CPM read as thousands mark
VT027 antiserum [14] = assay: competition RIA, antiserum 1:200K, tracer iodinated PACAP(31-38)
VT028 antiserum [15] = assay: as above
VT028 antiserum [16] = assay: RIA standard curve, tracer iodinated PACAP(31-38); 128 pg cold standard
VT026 antiserum [17] = assay: as above
VT028 antiserum [18] = assay: RIA standard curve, tracer iodinated PACAP(31-38); 128 pg cold standard; period in the CPM read as thousands mark
VT027 antiserum [19] = assay: competition RIA, tracer iodinated PACAP(31-38); low end tied to VT027 by Table 6 (41 pg)
VT027 antiserum [20] = assay: RIA standard curve, tracer iodinated PACAP(31-38); 18 pg cold standard (so in the source)
VT026 antiserum [21] = assay: as above
VT027 antiserum [22] = assay: RIA standard curve, tracer iodinated PACAP(31-38); 2,040 pg cold standard
VT026 antiserum [23] = assay: as above
VT028 antiserum [24] = assay: RIA standard curve, tracer iodinated PACAP(31-38); 2 pg cold standard; period in the CPM read as thousands mark
VT028 antiserum [25] = assay: RIA standard curve, tracer iodinated PACAP(31-38); 16 pg cold standard; period in the CPM read as thousands mark
VT027 antiserum [26] = assay: RIA standard curve, tracer iodinated PACAP(31-38); 2 pg cold standard
VT028 antiserum [27] = assay: as above
VT026 antiserum [28] = assay: as above
VT027 antiserum [29] = assay: RIA standard curve, tracer iodinated PACAP(31-38); 3 pg cold standard (so in the source)
VT028 antiserum [30] = assay: RIA standard curve, tracer iodinated PACAP(31-38); 2.040 pg cold standard as printed (read as 2,040)
VT027 antiserum [31] = assay: RIA standard curve, tracer iodinated PACAP(31-38); 1 pg cold standard
VT028 antiserum [32] = assay: as above
VT026 antiserum [33] = assay: as above
VT027 antiserum [34] = assay: RIA standard curve, tracer iodinated PACAP(31-38); 84 pg cold standard (so in the source)
VT026 antiserum [35] = assay: as above
VT027 antiserum [36] = assay: RIA standard curve, tracer iodinated PACAP(31-38); 32 pg cold standard
VT028 antiserum [37] = assay: as above
VT026 antiserum [38] = assay: as above
VT028 antiserum [39] = assay: RIA standard curve, tracer iodinated PACAP(31-38); 1.020 pg cold standard as printed (read as 1,020); period in the CPM read as thousands mark
VT027 antiserum [40] = assay: RIA standard curve, tracer iodinated PACAP(31-38); 510 pg cold standard
VT028 antiserum [41] = assay: as above
VT026 antiserum [42] = assay: as above
VT028 antiserum [43] = assay: RIA standard curve, tracer iodinated PACAP(31-38); 54 pg cold standard (so in the source); period in the CPM read as thousands mark
VT027 antiserum [44] = assay: RIA standard curve, tracer iodinated PACAP(31-38); 255 pg cold standard
VT028 antiserum [45] = assay: as above
VT026 antiserum [46] = assay: as above
VT026 antiserum [47] = assay: competition RIA, antiserum 1:100K, tracer iodinated PACAP(31-38)
VT026 antiserum [48] = assay: competition RIA, tracer iodinated PACAP(31-38); high end tied to VT026 by Table 5 (20.3 fmol)
VT028 antiserum [49] = assay: RIA standard curve, tracer iodinated PACAP(31-38); 1 pg cold standard; period in the CPM read as thousands mark
VT028 antiserum [50] = assay: RIA standard curve, tracer iodinated PACAP(31-38); 16 pg cold standard
VT027 antiserum [51] = assay: RIA standard curve, tracer iodinated PACAP(31-38); 4 pg cold standard
VT028 antiserum [52] = assay: as above
VT026 antiserum [53] = assay: as above

For HSDGIFTDSYSRYRKQMAVKKYLAAVLGKRYKQRVKNK (peptide, UniProt P18509 132-169, looked up, not fully specified; ends and bridges not checked) [PACAP38], the assay midpoint [1] was 3.5 fmol, the BINDING (VT027 antiserum [2]) was 0.245 and the CPM (VT027 antiserum [2]) was 2190 cpm. It also gave a BINDING (VT028 antiserum [3]) of 0.914, a CPM (VT028 antiserum [4]) of 1730 cpm and a CPM (VT028 antiserum [5]) of 10400 cpm. It also gave a CPM (VT028 antiserum [6]) of 8840 cpm, a BINDING (VT027 antiserum [7]) of 0.0512 and a CPM (VT027 antiserum [7]) of 858 cpm. For the same binder, the BINDING (VT026 antiserum [8]) was 0.0598, the CPM (VT026 antiserum [8]) was 800 cpm and the CPM (VT028 antiserum [9]) was 2760 cpm. It also gave a BINDING (VT028 antiserum [10]) of 0.606, a BINDING (VT028 antiserum [11]) of 0.0685 and a BINDING (VT026 antiserum [12]) of 0.945. It also gave a CPM (VT026 antiserum [12]) of 5450 cpm, a CPM (VT028 antiserum [13]) of 10800 cpm and a DETECTION LIMIT (VT027 antiserum [14]) of 2.19 pg. For the same binder, the MIDPOINT [fmol] (VT027 antiserum [14]) was 92 fmol, the MIDPOINT [pg] (VT027 antiserum [14]) was 41 pg and the DETECTION LIMIT (VT028 antiserum [15]) was 6.69 pg. For the same binder, the MIDPOINT [fmol] (VT028 antiserum [15]) was 19.3 fmol, the MIDPOINT [pg] (VT028 antiserum [15]) was 67 pg and the BINDING (VT028 antiserum [16]) was 0.367. For the same binder, the BINDING (VT026 antiserum [17]) was 0.427, the CPM (VT026 antiserum [17]) was 2800 cpm and the CPM (VT028 antiserum [18]) was 4350 cpm. The assay midpoint (VT027 antiserum [19]) was 9 fmol, the BINDING (VT027 antiserum [20]) was 0.715 and the CPM (VT027 antiserum [20]) was 5900 cpm. The BINDING (VT026 antiserum [21]) was 0.859, the CPM (VT026 antiserum [21]) was 4980 cpm and the BINDING (VT027 antiserum [22]) was 0.0302. For the same binder, the CPM (VT027 antiserum [22]) was 490 cpm, the BINDING (VT026 antiserum [23]) was 0.0479 and the CPM (VT026 antiserum [23]) was 515 cpm. It also gave a CPM (VT028 antiserum [24]) of 11200 cpm, a CPM (VT028 antiserum [25]) of 10100 cpm and a BINDING (VT027 antiserum [26]) of 0.931. For the same binder, the CPM (VT027 antiserum [26]) was 7620 cpm, the BINDING (VT028 antiserum [27]) was 0.981 and the BINDING (VT026 antiserum [28]) was 0.961. For the same binder, the CPM (VT026 antiserum [28]) was 5540 cpm, the BINDING (VT027 antiserum [29]) was 0.835 and the CPM (VT027 antiserum [29]) was 6850 cpm. It also gave a BINDING (VT028 antiserum [30]) of 0.0389, a CPM (VT028 antiserum [30]) of 684 cpm and a BINDING (VT027 antiserum [31]) of 0.978. For the same binder, the CPM (VT027 antiserum [31]) was 7960 cpm, the BINDING (VT028 antiserum [32]) was 0.993 and the BINDING (VT026 antiserum [33]) was 0.973. The CPM (VT026 antiserum [33]) was 5600 cpm, the BINDING (VT027 antiserum [34]) was 0.411 and the CPM (VT027 antiserum [34]) was 3500 cpm. For the same binder, the BINDING (VT026 antiserum [35]) was 0.502, the CPM (VT026 antiserum [35]) was 3450 cpm and the BINDING (VT027 antiserum [36]) was 0.584. For the same binder, the CPM (VT027 antiserum [36]) was 4860 cpm, the BINDING (VT028 antiserum [37]) was 0.77 and the BINDING (VT026 antiserum [38]) was 0.728. For the same binder, the CPM (VT026 antiserum [38]) was 4250 cpm, the CPM (VT028 antiserum [39]) was 1020 cpm and the BINDING (VT027 antiserum [40]) was 0.0789. For the same binder, the CPM (VT027 antiserum [40]) was 875 cpm, the BINDING (VT028 antiserum [41]) was 0.133 and the BINDING (VT026 antiserum [42]) was 0.142. It also gave a CPM (VT026 antiserum [42]) of 1030 cpm, a CPM (VT028 antiserum [43]) of 7010 cpm and a BINDING (VT027 antiserum [44]) of 0.147. The CPM (VT027 antiserum [44]) was 1140 cpm, the BINDING (VT028 antiserum [45]) was 0.227 and the BINDING (VT026 antiserum [46]) was 0.271. It also gave a CPM (VT026 antiserum [46]) of 1740 cpm, a DETECTION LIMIT (VT026 antiserum [47]) of 5.38 pg and an MIDPOINT [fmol] (VT026 antiserum [47]) of 20.3 fmol. The MIDPOINT [pg] (VT026 antiserum [47]) was 92 pg, the assay midpoint (VT026 antiserum [48]) was 20 fmol and the CPM (VT028 antiserum [49]) was 11300 cpm. For the same binder, the BINDING (VT028 antiserum [50]) was 0.88, the BINDING (VT027 antiserum [51]) was 0.589 and the CPM (VT027 antiserum [51]) was 7280 cpm. The BINDING (VT028 antiserum [52]) was 0.946, the BINDING (VT026 antiserum [53]) was 0.957 and the CPM (VT026 antiserum [53]) was 5510 cpm.
